Test results reported in US20210355227A1 (Regeneron, published 2021).
Changes are numbered by the printed parent chain.

Experiments:
[1] = target: T1, mouse GLP1R-MMH (mouse); assay: SPR Biacore 4000, mAb captured by anti-human Fc, 37 C
T1 construct: It was injected at 100 nM only; also called mGLP1R-MMH; monomeric mouse GLP1R
T1 chain: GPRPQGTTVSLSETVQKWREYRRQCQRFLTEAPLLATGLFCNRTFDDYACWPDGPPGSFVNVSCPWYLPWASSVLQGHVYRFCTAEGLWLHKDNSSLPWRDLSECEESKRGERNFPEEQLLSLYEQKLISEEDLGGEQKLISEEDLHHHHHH
Method: (§1) The equilibrium dissociation constant (KD) for GLP1R binding to selected GLP1R monoclonal antibodies (mAbs) was determined using a real-time surface plasmon resonance biosensor using a Biacore 4000 instrument. All binding studies were performed in 10 mM HEPES, 150 mM NaCl, 3 mM EDTA, and 0.05% v/v Surfactant Tween-20, pH 7.4 (HBS-ET) running buffer at 25° C. and 37° C. The Biacore CM5 sensor chip surface was first derivatized by amine coupling with human Fc specific mouse mAb to capture different GLP1R mAbs. […] At the end of each cycle, the GLP1R mAb capture surface was regenerated using a 12 sec injection of 20 mM phosphoric acid.
(§2) The association rate (kₐ) and dissociation rate (kd) were determined by fitting the real-time binding sensorgrams to a 1:1 binding model with mass transport limitation using Scrubber 2.0 c curve-fitting software. Binding dissociation equilibrium constant (KD) and dissociative half-life (t½) were calculated from the kinetic rates as:

[2] = target: T2, macaca fascicularis GLP1R-MMH (macaca fascicularis); assay: SPR Biacore 4000, mAb captured by anti-human Fc, 25 C
T2 construct: also called mfGLP1R-MMH; monomeric cynomolgus GLP1R
T2 chain: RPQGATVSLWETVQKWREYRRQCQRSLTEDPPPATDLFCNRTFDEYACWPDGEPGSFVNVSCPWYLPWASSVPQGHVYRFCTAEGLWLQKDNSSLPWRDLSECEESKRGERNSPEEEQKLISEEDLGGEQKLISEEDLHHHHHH
Method: as §1
(§3) The association rate (kₐ) and dissociation rate (kd) were determined by fitting the real-time binding sensorgrams to a 1:1 binding model with mass transport limitation using Scrubber 2.0 c curve-fitting software.

[3] = target: full-length human GLP1R on HEK293/CRE-luc/GLP1R cells (human, UniProt P43220 24-463); assay: cell-based or functional assay
[4] = target: T3, N-terminal region of human GLP1R-MMH (human); assay: SPR Biacore 4000, mAb captured by anti-human Fc, 25 C
T3 construct: also called hGLP1R-MMH
T3 chain: T2 chain with N112S
Method: as §1, §3

[5] = target: T4, in-line fusion protein of human desA-GLP1 and GLP1R-MMH (human); assay: as above
T4 construct: also called hdesA-GLP1_GLP1R-MMH
T4 chain: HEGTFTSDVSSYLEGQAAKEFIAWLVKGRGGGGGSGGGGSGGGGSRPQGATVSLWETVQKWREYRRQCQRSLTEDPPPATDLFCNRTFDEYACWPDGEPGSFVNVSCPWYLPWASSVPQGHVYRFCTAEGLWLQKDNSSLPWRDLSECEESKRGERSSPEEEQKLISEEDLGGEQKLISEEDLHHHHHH
Method: as §1, §2

[6] = target: T1, mouse GLP1R-MMH; assay: as above
Method: as §1, §2

[7] = target: T2, macaca fascicularis GLP1R-MMH; assay: SPR Biacore 4000, mAb captured by anti-human Fc, 37 C
Method: as §1, §3

[8] = target: T5, human GLP1R expressed with mouse IgG2a Fc (human); assay: SPR Biacore 4000, mAb captured by anti-human Fc, 25 C
T5 construct: It is probably the N-terminal region, as for hGLP1R-MMH, but the sentence is ambiguous; also called hGLP1R-mFc
T5 chain: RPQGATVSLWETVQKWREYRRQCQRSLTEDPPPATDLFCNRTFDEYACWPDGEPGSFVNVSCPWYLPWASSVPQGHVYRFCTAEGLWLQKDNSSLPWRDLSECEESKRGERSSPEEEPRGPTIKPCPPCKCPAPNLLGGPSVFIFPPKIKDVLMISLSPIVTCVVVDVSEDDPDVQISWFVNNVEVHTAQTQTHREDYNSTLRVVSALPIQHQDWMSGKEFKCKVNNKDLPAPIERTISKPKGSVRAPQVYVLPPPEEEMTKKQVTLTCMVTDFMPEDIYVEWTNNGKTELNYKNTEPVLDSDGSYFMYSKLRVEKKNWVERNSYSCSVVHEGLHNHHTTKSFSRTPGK
Method: as §1, §2

[9] = target: T5, human GLP1R expressed with mouse IgG2a …; assay: SPR Biacore 4000, mAb captured by anti-human Fc, 37 C
Method: as §1, §2

[10] = target: T4, in-line fusion protein of human …; assay: as above
Method: as §1, §3

[11] = target: T3, N-terminal region of human GLP1R-MMH; assay: as above
Method: as §1, §3

B1: mAb37645 (antibody, human IgG4 S228P, kappa, V domains shown)
VH: QVRLQQWGAGLLKPSETLSLTCAVYGGSFSGYFWSWIRQPPGKGLEWIGEINHGGNTNSNPSLKSRVTISVDTSKNQFSLKLSAVIAADTAVYYCARGQYRSGGGYWYFDLWGRGTLVTVSS
VL: EIVLTQSPGTLSLSPGERATLSCRASQSISSVHLAWYQQKPGQAPRLLIYGASSRATGIPDRFSGSGSETDFTLTVSRLEPDDFTMYYCQQYGSSPWTFGQGTKVEIKR
notes: In SPR the mAbs were captured by a human-Fc-specific antibody
In the case of B1, the “100 nM mGLP1R-MMH Bound (RU)” value [1] is reported as 42 RU, the Kd [1] is reported as 29.8 nM and the koff [1] is reported as 0.00249 s⁻¹. For the same binder, the kon [1] was 83600 M⁻¹ s⁻¹, the t½ [1] was 4.6 min and the “100 nM mfGLP1R-MMH Bound (RU)” value [2] was 35 RU. The Kd [2] was 19.6 nM, the koff [2] was 0.000826 s⁻¹ and the kon [2] was 42200 M⁻¹ s⁻¹. The t½ [2] was 14 min, the “% Inhibition of human GLP1R activation by 40 pM GLP1 (CRE-luciferase reporter)” value (shortened to “% Inhibition of human GLP1R activation”) [3] was 73% and the “IC50 [M] of inhibition of human GLP1R activation by 40 pM GLP1 (CRE-luciferase reporter)” value [3] was 1.23e-09 M. The “100 nM hGLP1R-MMH Bound (RU)” value [4] was 60 RU, the Kd [4] was 5.72 nM and the koff [4] was 0.000866 s⁻¹. For the same binder, the kon [4] was 152000 M⁻¹ s⁻¹, the t½ [4] was 13 min and the “100 nM hdesA-GLP1_GLP1R-MMH Bound (RU)” value [5] was 58 RU. It also gave a Kd [5] of 4.32 nM, a koff [5] of 0.00052 s⁻¹ and a kon [5] of 120000 M⁻¹ s⁻¹. For the same binder, the t½ [5] was 22 min, the “100 nM mGLP1R-MMH Bound (RU)” value [6] was 30 RU and the Kd [6] was 10.8 nM. For the same binder, the koff [6] was 0.000617 s⁻¹, the kon [6] was 56900 M⁻¹ s⁻¹ and the t½ [6] was 19 min. For the same binder, the “100 nM mfGLP1R-MMH Bound (RU)” value [7] was 42 RU, the Kd [7] was 55.2 nM and the koff [7] was 0.00384 s⁻¹. For the same binder, the kon [7] was 69500 M⁻¹ s⁻¹, the t½ [7] was 3 min and the “100 nM hGLP1R-mFc Bound (RU)” value [8] was 91 RU. The Kd [8] was 1.42 nM, the koff [8] was 0.000183 s⁻¹ and the kon [8] was 128000 M⁻¹ s⁻¹. For the same binder, the t½ [8] was 63 min, the “100 nM hGLP1R-mFc Bound (RU)” value [9] was 116 RU and the Kd [9] was 2.59 nM. For the same binder, the koff [9] was 0.00065 s⁻¹, the kon [9] was 251000 M⁻¹ s⁻¹ and the t½ [9] was 18 min. The “100 nM hdesA-GLP1_GLP1R-MMH Bound (RU)” value [10] was 71 RU, the Kd [10] was 16.5 nM and the koff [10] was 0.00229 s⁻¹. The kon [10] was 139000 M⁻¹ s⁻¹, the t½ [10] was 5 min and the “100 nM hGLP1R-MMH Bound (RU)” value [11] was 70 RU. It also gave a Kd [11] of 18 nM, a koff [11] of 0.00349 s⁻¹ and a kon [11] of 195000 M⁻¹ s⁻¹. The t½ [11] was 3.3 min.

B2: mAb36986 (antibody, human IgG4 S228P, kappa, V domains shown)
VH: QVQLVQSGTEVKKPGASVKVSCMASGYTFTTYGISWVRQAPGQGLEWMGWISAYNGNTKYAQRLQGRVTMTTDTSTTTAYMGLRGLRSDDTAVYFCARVTLSGRFDYWGQGTLVTVSP
VL: DIQMTQSPSSLSASVGDRVTITCQASQDISDYLNWYQQKPGKAPKLLIYDASNLETGVPSRFSGSGSGTDFTFTIRSLQPEDIATYYCQQYDNLPYTFGQGTKLEIKR
notes: as for B1
With B2 the “100 nM mGLP1R-MMH Bound (RU)” value [1] was 70 RU, the Kd [1] was 74.7 nM and the koff [1] was 0.0485 s⁻¹. The kon [1] was 649000 M⁻¹ s⁻¹, the t½ [1] was 0.24 min and the “100 nM mfGLP1R-MMH Bound (RU)” value [2] was 103 RU. For the same binder, the Kd [2] was 0.424 nM, the koff [2] was 0.000102 s⁻¹ and the kon [2] was 240000 M⁻¹ s⁻¹. For the same binder, the t½ [2] was 113 min, the “% Inhibition of human GLP1R activation” value [3] was 100% and the “IC50 [M] of inhibition of human GLP1R activation by 40 pM GLP1 (CRE-luciferase reporter)” value [3] was 1.69e-09 M. For the same binder, the “100 nM hGLP1R-MMH Bound (RU)” value [4] was 115 RU, the Kd [4] was 0.139 nM and the koff [4] was 9.97e-05 s⁻¹. For the same binder, the kon [4] was 717000 M⁻¹ s⁻¹, the t½ [4] was 116 min and the “100 nM hdesA-GLP1_GLP1R-MMH Bound (RU)” value [5] was 13 RU. It also gave a Kd [5] of 3.56 nM, a koff [5] of 0.000108 s⁻¹ and a kon [5] of 30400 M⁻¹ s⁻¹. For the same binder, the t½ [5] was 107 min, the “100 nM mGLP1R-MMH Bound (RU)” value [6] was 88 RU and the Kd [6] was 20.1 nM. For the same binder, the koff [6] was 0.00902 s⁻¹, the kon [6] was 449000 M⁻¹ s⁻¹ and the t½ [6] was 1.3 min. The “100 nM mfGLP1R-MMH Bound (RU)” value [7] was 128 RU, the Kd [7] was 1.59 nM and the koff [7] was 0.000501 s⁻¹. The kon [7] was 315000 M⁻¹ s⁻¹, the t½ [7] was 23 min and the “100 nM hGLP1R-mFc Bound (RU)” value [8] was 187 RU. The Kd [8] was 0.735 nM, the koff [8] was 7.64e-05 s⁻¹ and the kon [8] was 104000 M⁻¹ s⁻¹. The t½ [8] was 151 min, the “100 nM hGLP1R-mFc Bound (RU)” value [9] was 246 RU and the Kd [9] was 3.35 nM. It also gave a koff [9] of 0.000432 s⁻¹, a kon [9] of 129000 M⁻¹ s⁻¹ and a t½ [9] of 27 min. For the same binder, the “100 nM hdesA-GLP1_GLP1R-MMH Bound (RU)” value [10] was 28 RU, the Kd [10] was 60.4 nM and the koff [10] was 0.000987 s⁻¹. For the same binder, the kon [10] was 16300 M⁻¹ s⁻¹, the t½ [10] was 12 min and the “100 nM hGLP1R-MMH Bound (RU)” value [11] was 135 RU. It also gave a Kd [11] of 0.594 nM, a koff [11] of 0.000544 s⁻¹ and a kon [11] of 915000 M⁻¹ s⁻¹. For the same binder, the t½ [11] was 21 min.

B3: mAb37639 (antibody, human IgG4 S228P, kappa, V domains shown)
VH: EVQLLESGGGVVQPGGSLRLSCVASGFTFSSYAMSWVRQAPGKGLEWVSSISGSGGSTDNADSVKGRFTISRDNSKNTLYLQMNSLRAEDTAVYYCAKDRITIFGVVLNGAFDIWGQGTMVTVSS
VL: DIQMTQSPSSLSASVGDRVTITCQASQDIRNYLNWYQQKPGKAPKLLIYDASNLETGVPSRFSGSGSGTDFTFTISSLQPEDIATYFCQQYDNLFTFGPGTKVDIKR
notes: as for B1
B3 was tested, and the “100 nM mGLP1R-MMH Bound (RU)” value [1] was 97 RU, the Kd [1] was 22.1 nM and the koff [1] was 0.00959 s⁻¹. The kon [1] was 435000 M⁻¹ s⁻¹, the t½ [1] was 1.2 min and the “100 nM mfGLP1R-MMH Bound (RU)” value [2] was 83 RU. For the same binder, the Kd [2] was 1.42 nM, the koff [2] was 0.000195 s⁻¹ and the kon [2] was 137000 M⁻¹ s⁻¹. For the same binder, the t½ [2] was 59 min, the “% Inhibition of human GLP1R activation” value [3] was 100% and the “IC50 [M] of inhibition of human GLP1R activation by 40 pM GLP1 (CRE-luciferase reporter)” value [3] was 6.55e-09 M. For the same binder, the “100 nM hGLP1R-MMH Bound (RU)” value [4] was 103 RU, the Kd [4] was 0.474 nM and the koff [4] was 0.000186 s⁻¹. The kon [4] was 393000 M⁻¹ s⁻¹, the t½ [4] was 62 min and the “100 nM hdesA-GLP1_GLP1R-MMH Bound (RU)” value [5] was 8 RU. The Kd [5] was 16 nM, the koff [5] was 0.00019 s⁻¹ and the kon [5] was 11900 M⁻¹ s⁻¹. For the same binder, the t½ [5] was 61 min, the “100 nM mGLP1R-MMH Bound (RU)” value [6] was 85 RU and the Kd [6] was 16.9 nM. The koff [6] was 0.00454 s⁻¹, the kon [6] was 269000 M⁻¹ s⁻¹ and the t½ [6] was 2.5 min. The “100 nM mfGLP1R-MMH Bound (RU)” value [7] was 110 RU, the Kd [7] was 1.94 nM and the koff [7] was 0.000418 s⁻¹. For the same binder, the kon [7] was 215000 M⁻¹ s⁻¹, the t½ [7] was 28 min and the “100 nM hGLP1R-mFc Bound (RU)” value [8] was 122 RU. It also gave a Kd [8] of 2.37 nM, a koff [8] of 0.000156 s⁻¹ and a kon [8] of 65900 M⁻¹ s⁻¹. The t½ [8] was 74 min, the “100 nM hGLP1R-mFc Bound (RU)” value [9] was 185 RU and the Kd [9] was 3.52 nM. It also gave a koff [9] of 0.000354 s⁻¹, a kon [9] of 101000 M⁻¹ s⁻¹ and a t½ [9] of 33 min. The “100 nM hdesA-GLP1_GLP1R-MMH Bound (RU)” value [10] was 21 RU, the Kd [10] was 74.2 nM and the koff [10] was 0.00127 s⁻¹. For the same binder, the kon [10] was 17100 M⁻¹ s⁻¹, the t½ [10] was 9 min and the “100 nM hGLP1R-MMH Bound (RU)” value [11] was 123 RU. It also gave a Kd [11] of 0.632 nM, a koff [11] of 0.000422 s⁻¹ and a kon [11] of 668000 M⁻¹ s⁻¹. It also gave a t½ [11] of 27 min.
